Molecular target: T1, MBP-IGKVDJ3-6×His (MBP fusion human antibody kappa light chain variable region protein, family 3 consensus)
T1 construct: also called MBP-VK3
Test: SPR (legend of Fig. 12B), control MBP

T1 sequence (chain, as listed by the source): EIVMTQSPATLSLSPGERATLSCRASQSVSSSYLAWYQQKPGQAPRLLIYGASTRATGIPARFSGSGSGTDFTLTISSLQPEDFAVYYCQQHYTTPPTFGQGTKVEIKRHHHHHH

binding result: binds
Binder: WHWNWMRLDPMT [code 15 peptide]
